# Literature values in publication PMC2683937.
# Experiments:
# [1] = target: TGF-β1 (Homo sapiens) (UniProt P01137)
# [2] = target: BMP4 (Homo sapiens) (UniProt P12644)
# Chain of UniProt P12644 (P12644 293-408): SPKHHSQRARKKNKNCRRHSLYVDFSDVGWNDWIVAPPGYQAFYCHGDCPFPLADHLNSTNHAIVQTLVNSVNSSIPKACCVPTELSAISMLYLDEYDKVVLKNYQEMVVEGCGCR
# Chain of UniProt P01137 (P01137 279-390): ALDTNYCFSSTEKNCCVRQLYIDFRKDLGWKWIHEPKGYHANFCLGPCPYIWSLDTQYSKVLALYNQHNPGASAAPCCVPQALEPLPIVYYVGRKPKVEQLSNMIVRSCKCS
substance,measurement,setting,value
CCN2 (from UniProt P29279),Kd,[1],30 nM
same,Kd,[2],5 nM
